According to patent US6465254, “Mutant loxP site and applications thereof” (Sumitomo Pharmaceuticals Company, Limited):

How the values were obtained:
Conditions in all cases: tags: expressed from recombinant adenovirus AxCANCre in 293 cells
[1] = molecular target: T1, Cre recombinase (UniProt P06956 P06956:1-343); assay: self x self; intermediate 3
Procedure: Substrate DNA (1 μg) prepared in (3) and cell extract containing Cre (10 μl) prepared in (1) were incubated at 37° C. for 30 min in a 50 μl volume of buffer containing 50 mM Tris-HCl (pH 7.5)/10 mM MgCl2/1 mg/ml bovine serum albumin/1 mM phenylmethylsulfonyl fluoride (PMSF)/5 μg/ml aprotinin. After completion of the reaction, 45 μl of TE buffer (pH 8.0) and 5 μl of EDTA solution (pH 8.0) were added to the reaction mixture, extracted with phenol/chloroform and with chloroform, followed ethanol precipitation. The recovered DNA was dissolveld in 30 μl of TE buffer (pH 8.0) containing RNase A (20 μg/ml). Half volume thereof was digested with restriction enzyme BsaHI. The DNA bands detected by ethidium bromide (EtBr) staining after agarose gel electrophoresis, were analyzed.
Before recombination mediated by Cre, restriction enzyme BsaHI digestion of linear substrate DNA (approx. 4.1 kb) generates four bands of 2.7 kb, 610 bp, 380 bp and 360 bp. On the other hand, as a result of recombination of substrate DNA mediated by Cre, a circular DNA of approx. 4.0 kb containing one mutant loxP, and a linear DNA of approx. 50 bp consisting of only mutant loxP, are produced. Digestion of these DNA with restriction enzyme BsaHI generates four bands of 2.7 kb, 920 bp, 380 bp and 50 bp (refer to FIG. 6).

[2] = molecular target: T1, Cre recombinase; assay: self x self; intermediate 2
[3] = molecular target: T1, Cre recombinase; assay: self x self; intermediate 0

T1 sequence (P06956 whole entry, one chain of several): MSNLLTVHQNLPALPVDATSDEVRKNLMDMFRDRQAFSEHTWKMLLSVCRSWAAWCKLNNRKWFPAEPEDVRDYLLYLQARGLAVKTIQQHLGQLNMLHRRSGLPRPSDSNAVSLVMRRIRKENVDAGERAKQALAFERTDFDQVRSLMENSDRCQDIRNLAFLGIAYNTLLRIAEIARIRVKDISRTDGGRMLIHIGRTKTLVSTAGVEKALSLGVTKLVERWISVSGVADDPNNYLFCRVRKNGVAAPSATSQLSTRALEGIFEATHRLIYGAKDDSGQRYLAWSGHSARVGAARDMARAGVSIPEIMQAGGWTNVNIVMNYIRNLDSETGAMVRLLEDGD

B1: mutant loxP #81 (dsDNA)
DNA 1: ATAACTTCGTATAATGTATGTTATACGAAGTTAT
DNA 2: ATAACTTCGTATAACATACATTATACGAAGTTAT
- activity [1]: 3 grade 0-9 final product

B2: mutant loxP #2372 (dsDNA)
DNA 1: ATAACTTCGTATAAGGTATCCTATACGAAGTTAT
DNA 2: ATAACTTCGTATAGGATACCTTATACGAAGTTAT
- activity [2]: 0 grade 0-9 final product

B3: mutant loxP #4172 (dsDNA)
DNA 1: ATAACTTCGTATAATGCATCCTATACGAAGTTAT
DNA 2: ATAACTTCGTATAGGATGCATTATACGAAGTTAT
- activity [2]: 4 grade 0-9 final product

B4: mutant loxP #4171 (dsDNA)
DNA 1: ATAACTTCGTATAATGCATACTATACGAAGTTAT
DNA 2: ATAACTTCGTATAGTATGCATTATACGAAGTTAT
- activity [3]: 4 grade 0-9 final product

B5: mutant loxP #2271 (dsDNA)
DNA 1: ATAACTTCGTATAAAGTATACTATACGAAGTTAT
DNA 2: ATAACTTCGTATAGTATACTTTATACGAAGTTAT
- activity [2]: 6 grade 0-9 final product

B6: mutant loxP #5171 (dsDNA)
DNA 1: ATAACTTCGTATAATGTGTACTATACGAAGTTAT
DNA 2: ATAACTTCGTATAGTACACATTATACGAAGTTAT
- activity [3]: 6 grade 0-9 final product

B7: mutant loxP #6171 (dsDNA)
DNA 1: ATAACTTCGTATAATGTACACTATACGAAGTTAT
DNA 2: ATAACTTCGTATAGTGTACATTATACGAAGTTAT
- activity [3]: 6 grade 0-9 final product
